Measured values: patent publication US6686177B1, “Insulin analogs with enhanced zinc binding” (Aventis Pharma Deutschland GmbH, priority 1998, dated 2004)

What was measured:
[1] = Zinc binding of insulin analogs (dialysis against zinc-free neutral buffer, HPLC and atomic absorption spectroscopy); format: physicochemical; conditions: for Zinc binding: after extensive dialysis against zinc-free neutral buffer, pH 7.4; for zinc ions bound per hexamer: aqueous neutral solution, not removable by dialysis
Procedure: The dialyzates were then acidified and analyzed. The concentration of insulin was determined by reversed phase HPLC and that of the zinc by atomic absorption spectroscopy. The zinc values were corrected using the zinc content of a control batch which contained no insulin.

[2] = aqueous neutral solution, not removable by dialysis; cited from earlier work

Row | Substance | Zinc binding [1] | zinc ions bound per hexamer [1] | zinc ions complexed per hexamer via the His(B10) side chains [2]
1 | Asp(B3)-human insulin [Asp(B3)-insulin] | 4.2 mol of zinc/mol of hexamer | 4.2 zinc ions/hexamer | –
2 | human insulin [reference compound] | 2.5 mol of zinc/mol of hexamer | – | two
3 | His(B3)-human insulin [His(B3)-insulin] | 6.9 mol of zinc/mol of hexamer | approximately 7 zinc ions/hexamer | –
